Residue numbers refer to the chain shown, from its start.

This is an account of results in article PMC10801562 (Antibodies, 2024).

Sequences and labels used below:
T1: recombinant human CD3ε-CD3δ heterodimeric protein (CD3εδ) (Homo sapiens)
T1 construct: human CD3ε of the recombinant CD3εδ heterodimer; human CD3δ of the recombinant CD3εδ heterodimer; source: in-house prepared
T1 chain 1: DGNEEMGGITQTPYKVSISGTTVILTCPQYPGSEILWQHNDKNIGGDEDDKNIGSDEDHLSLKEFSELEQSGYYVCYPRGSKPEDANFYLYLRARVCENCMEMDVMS
T1 chain 2: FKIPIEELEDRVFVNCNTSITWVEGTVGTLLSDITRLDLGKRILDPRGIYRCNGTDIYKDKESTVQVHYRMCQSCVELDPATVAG

B1: m12F6 mIgG2a V1+C19, homodimeric antibody with FAST-Ig V1+C19 mutations (antibody, V domains shown)
VH: QVQLQQSGAELARPGASVKMSCKASGYTFTSYTMHWVKERPGQGLEWIGYINPSSGYTKYNQKFKDKATLTADKSSSTAYMQLSSLTSEDSAVYYCARWQDYDVYFDYWGQGTTLTVSS
VL: QIVLSQSPAILSASPGEKVTMTCRASSSVSYMHWYQKKPGSSPKPWIYATSNLASGVPARFSGSGSGTSYSLTISRVEAEDAATYYCQQWSSNPPTFGGGTKLETK
notes: VH of m12F6; mouse IgG2a (mIgG2a) heavy chain constant region; numbers count on: Eu numbering; VL of m12F6; mouse kappa light chain constant region (CL); numbers count on: Kabat numbering; Whole IgG of one HC and one LC; also called anti-CD3; H2L2H2L2; source: Expi293F, transiently expressed, purified (Ab-Capcher MAG2, MonoSpin ProA or MonoSpin ProG); copies: 2 + 2
B2: m12F6 mIgG1, homodimeric antibody without FAST-Ig mutations (antibody, V domains shown)
VH: B1 VH with E39Q
VL: B1 VL with K37Q
notes: VH of the original mouse antibody m12F6; mouse IgG1 (mIgG1) heavy chain constant region; numbers count on: Eu numbering; VL of the original mouse antibody m12F6; mouse kappa light chain constant region (CL); Whole IgG of one HC and one LC; also called anti-CD3; H2L2H2L2; source: Expi293F, transiently expressed, purified (Ab-Capcher MAG2 or MonoSpin ProG); copies: 2 + 2
B3: m12F6 mIgG2a, homodimeric antibody without FAST-Ig mutations (antibody, V domains shown)
VH: B1 VH with E39Q
VL: B1 VL with K37Q
notes: VH of the original mouse antibody m12F6; mouse IgG2a (mIgG2a) heavy chain constant region; numbers count on: Eu numbering; VL of the original mouse antibody m12F6; mouse kappa light chain constant region (CL); Whole IgG of one HC and one LC; also called anti-CD3; H2L2H2L2; source: Expi293F, transiently expressed, purified (Ab-Capcher MAG2, MonoSpin ProA or MonoSpin ProG); copies: 2 + 2
B4: m2C4 mIgG2a, homodimeric antibody without FAST-Ig mutations (antibody, V domains shown)
VH: EVQLQQSGPELVKPGTSVKISCKASGFTFTDYTMDWVKQSHGKSLEWIGDVNPNSGGSIYNQRFKGKASLTVDRSSRIVYMELRSLTFEDTAVYYCARNLGPSFYFDYWGQGTTLTVSS
VL: DTVMTQSHKIMSTSVGDRVSITCKASQDVSIGVAWYQQRPGQSPKLLIYSASYRYTGVPDRFTGSGSGTDFTFTISSVQAEDLAVYYCQQYYIYPYTFGGGTKLEIK
notes: VH of the original mouse antibody m2C4; mouse IgG2a (mIgG2a) heavy chain constant region; numbers count on: Eu numbering; VL of the original mouse antibody m2C4; mouse kappa light chain constant region (CL); Whole IgG of one HC and one LC; also called anti-HER2; H1L1H1L1; source: Expi293F, transiently expressed, purified (Ab-Capcher MAG2, MonoSpin ProA or MonoSpin ProG); copies: 2 + 2
B5: m2C4 mIgG1, homodimeric antibody without FAST-Ig mutations (antibody, V domains shown)
VH: B4 VH
VL: B4 VL
notes: VH of the original mouse antibody m2C4; mouse IgG1 (mIgG1) heavy chain constant region; numbers count on: Eu numbering; VL of the original mouse antibody m2C4; mouse kappa light chain constant region (CL); Whole IgG of one HC and one LC; also called anti-HER2; H1L1H1L1; source: Expi293F, transiently expressed, purified (Ab-Capcher MAG2 or MonoSpin ProG); copies: 2 + 2
B6: m2C4 mIgG1 V1+C19, homodimeric antibody with FAST-Ig V1+C19 mutations (antibody, V domains shown)
VH: B4 VH with Q39K
VL: B4 VL with Q38E
notes: VH of m2C4; mouse IgG1 (mIgG1) heavy chain constant region; K147 kept; numbers count on: Eu numbering; VL of m2C4; mouse kappa light chain constant region (CL); numbers count on: Kabat numbering; Whole IgG of one HC and one LC; also called anti-HER2; H1L1H1L1; source: Expi293F, transiently expressed, purified (Ab-Capcher MAG2 or MonoSpin ProG); copies: 2 + 2
B7: m2C4 mIgG2a V1+C19, homodimeric antibody with FAST-Ig V1+C19 mutations (antibody, V domains shown)
VH: B4 VH with Q39K
VL: B4 VL with Q38E
notes: VH of m2C4; mouse IgG2a (mIgG2a) heavy chain constant region; K147 kept; numbers count on: Eu numbering; VL of m2C4; mouse kappa light chain constant region (CL); numbers count on: Kabat numbering; Whole IgG of one HC and one LC; also called anti-HER2; H1L1H1L1; source: Expi293F, transiently expressed, purified (Ab-Capcher MAG2, MonoSpin ProA or MonoSpin ProG); copies: 2 + 2
B8: m4D5 mIgG1, homodimeric antibody without FAST-Ig mutations (antibody, V domains shown)
VH: QVQLQQSGPELVKPGASLKLSCTASGFNIKDTYIHWVKQRPEQGLEWIGRIYPTNGYTRYDPKFQDKATITADTSSNTAYLQVSRLTSEDTAVYYCSRWGGDGFYAMDYWGQGASVTVSS
VL: DIVMTQSHKFMSTSVGDRVSITCKASQDVNTAVAWYQQKPGHSPKLLIYSASFRYTGVPDRFTGSRSGTDFTFTISSVQAEDLAVYYCQQHYTTPPTFGGGTKVEIK
notes: VH of the original mouse antibody m4D5; mouse IgG1 (mIgG1) heavy chain constant region; numbers count on: Eu numbering; VL of m4D5; mouse kappa light chain constant region (CL); Whole IgG of one HC and one LC; also called anti-HER2; H1L1H1L1; source: Expi293F, transiently expressed, purified (Ab-Capcher MAG2 or MonoSpin ProG); copies: 2 + 2
B9: m4D5 mIgG2a, homodimeric antibody without FAST-Ig mutations (antibody, V domains shown)
VH: B8 VH
VL: B8 VL
notes: VH of the original mouse antibody m4D5; mouse IgG2a (mIgG2a) heavy chain constant region; numbers count on: Eu numbering; VL of m4D5; mouse kappa light chain constant region (CL); Whole IgG of one HC and one LC; also called anti-HER2; H1L1H1L1; source: Expi293F, transiently expressed, purified (Ab-Capcher MAG2, MonoSpin ProA or MonoSpin ProG); copies: 2 + 2
B10: m4D5 mIgG2a V1+C19, homodimeric antibody with FAST-Ig V1+C19 mutations (antibody, V domains shown)
VH: B8 VH with Q39K
VL: B8 VL with Q38E
notes: VH of m4D5; mouse IgG2a (mIgG2a) heavy chain constant region; K147 kept; numbers count on: Eu numbering; VL of m4D5; mouse kappa light chain constant region (CL); numbers count on: Kabat numbering; Whole IgG of one HC and one LC; also called anti-HER2; H1L1H1L1; source: Expi293F, transiently expressed, purified (Ab-Capcher MAG2, MonoSpin ProA or MonoSpin ProG); copies: 2 + 2
B11: m4D5 mIgG1 V1+C19, homodimeric antibody with FAST-Ig V1+C19 mutations (antibody, V domains shown)
VH: B8 VH with Q39K
VL: B8 VL with Q38E
notes: VH of m4D5; mouse IgG1 (mIgG1) heavy chain constant region; K147 kept; numbers count on: Eu numbering; VL of m4D5; mouse kappa light chain constant region (CL); numbers count on: Kabat numbering; Whole IgG of one HC and one LC; also called anti-HER2; H1L1H1L1; source: Expi293F, transiently expressed, purified (Ab-Capcher MAG2 or MonoSpin ProG); copies: 2 + 2

For one assay, the target named is T1, recombinant human CD3ε-CD3δ …. As to the kind of experiment: SPR; Biacore T200, 37 °C, pH 7.4, PB-P+; antibody captured (630 RU) by anti-mouse IgG (Fc) antibody on a CM4 chip; human CD3εδ as analyte, 18.8-19,200 nmol/L (mHIT3a, mOKT3) or 75-76,800 nmol/L (m12F6); steady state model. The settings on record: both partners purified.
With B1, the dissociation constant (Kd) amounted to 16.4 µM.

Consider B2, for which the Kd turned out to be 16.8 µM. On to B3, for which the Kd is 16.7 µM.

In a further assay the target is T2, recombinant human HER2 (Sino Biological, 10004-H08H) (Homo sapiens, UniProt P04626).
T2 construct: human epidermal growth factor receptor 2 (HER2), recombinant; also called human epidermal growth factor receptor 2; source: bought: Sino Biological
As to the kind of experiment: SPR; Biacore T200, 37 °C, pH 7.4, PB-P+ (0.05 mol/L Na-phosphate, 0.15 mol/L NaCl, 0.05% P-20); antibody captured (200 RU) by anti-mouse IgG (Fc) antibody on a CM4 chip; human HER2 as analyte, 6.3-100 nmol/L; 1:1 binding model. The settings on record: both partners purified.
As for B4, the Kd was 1.08 nM. For the molecule B5, the Kd is 0.759 nM.

For the molecule B6, the Kd stood at 0.784 nM.

B7: the Kd was 1.36 nM.

B8: the equilibrium dissociation constant (Kd) stood at 1.03 nM. With B9, the Kd was found to be 1.14 nM. On to B10, for which the Kd came out at 0.96 nM. For the molecule B11, the dissociation constant Kd amounted to 1.27 nM.
